Measurements taken from US20170267762A1 (APOLLOMICS, published 2017).

Key:
[1] = target: T1, human PD-1 on cells (293T cells transfected with human PD-1) (human, UniProt Q15116 25-288); experiment: FACS binding to 293T cells expressing human PD-1, MFI
T1 construct: whole, on cells; Also used as the target for the functional rows, where PD-1 stands on human T cells
Method: (§1) The cells were incubated with the indicated antibody (20 ug/ml with the dilution of ⅕) at 4° C. for 1 h. Cells were washed three times with FACS buffer. A secondary antibody (PE Goat anti-mouse: 1:200; PE mouse anti-human: 1:10) was added to the cells at 100 ul/well, and incubated at 4° C. for 40min. Cells were washed three times with FACS buffer and analyzed by FACS Array.

[2] = target: T2, human PD-1 (construct not stated) (human, UniProt Q15116 25-167, limits assumed); experiment: SPR (Biacore 3000), antibody captured on the chip, PD-1 as analyte, 1:1 Langmuir fit
T2 construct: also called PD-1 analyte
Method: To characterize the binding characteristics of the humanized antibodies, the binding kinetics between PD-1 and PD-1 antibodies were measured by Biacore3000 and recorded with a data collection rate of 1 Hz. The polyclonal rabbit anti-mouse IgG (GE, BR-1008-38) was diluted with 10 mM pH 5.0 sodium acetate and immobilized onto reference and experiment flow cells of a CMS biosensor chip to around 15000 RU using an amine coupling kit (GE, BR10050). In the beginning of each cycle, diluted test antibody (1.5 μg/mL) was injected over experiment flow cell for 1 minute to be captured. PD-1 analyte series were prepared by diluting the stocks with running buffer to 100nM followed by 2× serial dilution in the same buffer down to 0.78nM. Analytes were injected in series over the reference and experiment flow cells for 3 minutes at a flow rate of 30 μL/minute. Then running buffer (PBS with 0.05% P20) was allowed to flow over for 10 minutes at a flow rate of 30 μL/minute. At the end of each cycle, the biosensor surface was regenerated with 3 minutes injection of 10 mM pH1.7 Glycine-HC1 buffer at a flow rate of 10 μL/minute. For each analyte sample injection (i.e. each cycle), binding responses obtained from the experimental biosensor surface were double referenced by subtracting simultaneously recorded responses from the reference surface followed by additional subtraction of responses from a single referenced running buffer sample. The association and dissociation rate constants (ka and kd) were determined simultaneously by fitting double-referenced sensorgrams of the entire titration series to Langmuir model (1:1) using Biaevaluation 4.0 software. The dissociation constant, KD, was calculated from the determined rate constants by the relation KD =kd/ka. […] The Biocore binding curves are shown in FIGS. 10 and 17A, top panel, and the quantified binding data are summarized in FIGS. 10 and 17A, bottom panel.

[3] = target: T3, human PD-1 extracellular domain fused with human Fc tag (hPD-1-hFc) (human); experiment: ELISA binding to plate-bound PD-1, OD450 (methods similar to Example 2: plate coated with PD1-hFc)
T3 construct: also called human PD-1-hFc
Method: (§2) ELISA binding analysis was conducted based on human PD-1-hFc Protein. 96-well plates (Costar, Cat No:9018) were coated with 100 μL of 2 μg/ml PD1-hFc (CrownBio) in coating buffer (PBS, Hyclone, Cat No:SH30256.01B) overnight at 4° C. The wells were aspirated and non-specific binding sites were blocked by adding 200 μL of blocking buffer with 1% (w/v) of bovine serum albumin (BSA, Roche, Cat No: 738328) and incubating for 1 hour at 37° C. After the plates are washed three times with wash buffer (PBS with 0.05%(v/v) Tween20 (Sigma, Cat No:P1379), 100 μL/well of a suitable dilutions of hybridoma supernatant in blocking buffer were added and incubated at room temperature for 1 hour. The plates were washed and incubated with 100 μL/well of Goat anti-Mouse IgG (H+L) (Thermo, Cat No: 31432) in blocking buffer for 60 min. After the plates were washed, 100 μL/well of substrate solution (TMB(eBioscience, Cat No:00-4201-56) was added and the plates were incubated for 2min at room temperature. 100 μL/well of stop solution (2N H2SO4) was added to stop the reaction. The colorimetric signals were developed and read at 450 nm using a Auto Plate SpectraMax Plus (Supplier: Molecular Devices; Model: MNR0643; Software: SoftMax Pro v5.4).

[4] = target: T4, human PD-1 extracellular domain fused with mouse Fc (PD-1-mFc) (human, UniProt Q15116 25-170); experiment: ELISA ligand blockage: biotinylated PD-L1-mFc binding to plate-bound PD-1, OD450 (methods similar to Example 2: PD-1-mFc coated)
T4 construct: extracellular domain; not used because of the label; also called hPD-1-mFc; human PD-1-mouse Fc fusion protein
Method: (§3) PD-1-mFc antigen (CrownBio) was suspended in PBS (Hyclone,Cat No:SH30256.01B) buffer (2 ug/ml, 100 ul/ well) and coated on the 96 well plate (costar, Cat No.:9018) 4° C. overnight. Plates were washed 3 times using washing buffer: PBS+0.05% Tween 20(Sigma, Cat No.:P1379). 200 ul of blocking buffer (PBS+1%BSA(Roche, Cat No.:738328)), was added to each well, incubated at 37° C. for 1 hour, and washed 3 times. Various concentrations (suitable dilutions of hybridoma supernatant in PBS) of the anti-PD-1 Abs were added to the wells (100 μl/well) and incubated at 37° C. for 1 hour. […] Secondary antibody (Avidin HRP eBioscience cat No.:E07418-1632, 1:500, 100 ul/well) was added, incubated at 37 ° C. for 0.5 hour, and washed 3 times. TMB (Sigma, Cat No.: T0440, 100 ul/well) was added, and incubated for 3 min at RT. To stop the reaction, 2N H2SO4 (100 ul/well), was added. The colorimetric signals were developed and read at 450 nm using a Auto Plate SpectraMax Plus (Supplier: Molecular Devices; Model: MNR0643; Software: SoftMax Pro v5.4).

[5] = target: T1, human PD-1 on cells (293T cells …); experiment: FACS ligand blockage: biotin-labeled PD-L1 binding to 293T cells expressing human PD-1, MFI
Method: (§4) Various concentrations of the testing hybridoma antibodies were added to the cell suspension and incubated at 4° C. for 60 minutes in 96 well plates. […] Plates were washed 3 times, and mouse anti-biotin PE antibody (Biolgend, cat# 409004) was added. Flow cytometric analyses were performed using a FACS Array.

[6] = target: T1, human PD-1 on cells (293T cells …); experiment: FACS blockage on hPD-1-293T cells, competitor biotin PD-L1
Method: as §4
(§5) The purified hybridoma antibodies were characterized further based on ELISA and FACS analyses.

[7] = target: T3, human PD-1 extracellular domain fused …; experiment: ELISA binding (summary table)
Method: as §2, §5

mouse PD-1 = target: T5, mouse PD-1 (mouse, UniProt Q02242 25-169, limits assumed); experiment: assays not detailed
T5 sequence (looked up): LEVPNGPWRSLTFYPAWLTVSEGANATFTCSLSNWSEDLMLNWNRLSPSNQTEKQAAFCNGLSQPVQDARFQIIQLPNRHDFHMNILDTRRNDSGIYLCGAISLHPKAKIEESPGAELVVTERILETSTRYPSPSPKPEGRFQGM

[8] = target: T2, human PD-1 (construct not stated); experiment: Biacore (summary table; unit from Table 7)
Method: (§6) To further characterize the binding characteristics of the antibodies, 10 hybridoma antibodies were profiled using Biacore (Biacore 3000, GE) to elucidate binding kinetics and calculate equilibrium binding constants. This assay was performed by capture method, using the mouse antibody capture kit (BR-1008-38, GE). After diluting anti-mouse Fc mab to 25 μg/ml in pH 5.0 immobilization buffer, immobilization was conducted with the parameters shown in Table 6 at a flow rate of 5 μl/min. The kinetic runs were done by 1) injecting ligand for typical 0.5-1 min at flow rate of 10 μl/min.; 2) injecting analytes of choice for typical 3 min followed by dissociation in running buffer (1× PBS-P20) for typical 5-10 min at flow rate of 30 μl/min.; and 3) injecting regeneration solution 10 mM Glycine pH1.7 for typical 1-2 min at flow rate of 10 μl/min.

[9] = target: T4, human PD-1 extracellular domain fused …; experiment: blockage ELISA, competitor PDL-1-mFc-biotin (summary table; IC50 in ng/ml in Table 2)
Method: as §3

human CD28 = human CD28 (human, UniProt P10747 19-152, limits assumed); experiment: Interaction with CTLA4, ICOS CD28; assay not detailed
human ICOS = target: T6, human ICOS (human, UniProt Q9Y6W8 21-140, limits assumed); experiment: as above
T6 sequence (looked up): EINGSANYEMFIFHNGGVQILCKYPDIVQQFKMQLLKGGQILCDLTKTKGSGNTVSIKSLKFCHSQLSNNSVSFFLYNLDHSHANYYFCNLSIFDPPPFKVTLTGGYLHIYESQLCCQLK

human CTLA4 = target: T7, human CTLA4 (human, UniProt P16410 36-161, limits assumed); experiment: as above
T7 sequence (looked up): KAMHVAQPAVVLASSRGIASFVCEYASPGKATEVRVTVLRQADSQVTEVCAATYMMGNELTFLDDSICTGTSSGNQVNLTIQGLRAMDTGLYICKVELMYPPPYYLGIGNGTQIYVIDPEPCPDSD

[10] = target: T1, human PD-1 on cells (293T cells …); experiment: FACS blockage on hPD-1-293T cells, competitor biotin PD-L2
Method: as §4, §5

[11] = target: T1, human PD-1 on cells (293T cells …); experiment: FACS on hPD-1-293T cells
Method: as §1, §5

[12] = target: T4, human PD-1 extracellular domain fused …; experiment: blockage ELISA, coated PD-1-mFc, competitor PDL-1-mFc-biotin
Method: as §3, §5

[13] = target: T2, human PD-1 (construct not stated); experiment: Biacore, antibody captured, PD-1 analyte
Method: as §6

[14] = target: T3, human PD-1 extracellular domain fused …; experiment: ELISA on coated PD1-hFc
Method: as §2, §5

T1 sequence (Q15116 25-288): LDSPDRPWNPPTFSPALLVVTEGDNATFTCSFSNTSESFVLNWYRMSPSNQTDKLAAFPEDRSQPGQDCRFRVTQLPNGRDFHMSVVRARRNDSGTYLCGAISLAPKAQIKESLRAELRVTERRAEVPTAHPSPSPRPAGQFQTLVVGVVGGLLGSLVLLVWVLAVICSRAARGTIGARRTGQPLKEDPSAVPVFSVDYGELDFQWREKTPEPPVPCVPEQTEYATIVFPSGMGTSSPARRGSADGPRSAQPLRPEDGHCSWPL
T3 sequence (chain, as listed by the source limits assumed): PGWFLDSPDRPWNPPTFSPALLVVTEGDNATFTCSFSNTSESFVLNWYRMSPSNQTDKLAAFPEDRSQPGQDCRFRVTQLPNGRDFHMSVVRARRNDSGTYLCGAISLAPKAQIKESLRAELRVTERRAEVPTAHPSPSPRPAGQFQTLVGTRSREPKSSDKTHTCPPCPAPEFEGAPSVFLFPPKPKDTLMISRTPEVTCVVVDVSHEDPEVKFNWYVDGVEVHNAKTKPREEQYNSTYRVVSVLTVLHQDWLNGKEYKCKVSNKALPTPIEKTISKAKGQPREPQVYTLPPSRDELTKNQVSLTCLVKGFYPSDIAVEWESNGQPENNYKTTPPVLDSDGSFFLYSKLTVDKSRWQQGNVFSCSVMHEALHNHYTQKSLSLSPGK
T4 sequence (Q15116 25-170): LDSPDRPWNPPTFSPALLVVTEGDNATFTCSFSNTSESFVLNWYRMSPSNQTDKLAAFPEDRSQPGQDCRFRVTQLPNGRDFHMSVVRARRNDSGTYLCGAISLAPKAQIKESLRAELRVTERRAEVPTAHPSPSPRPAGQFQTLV
T2 sequence (Q15116 25-167 limits assumed): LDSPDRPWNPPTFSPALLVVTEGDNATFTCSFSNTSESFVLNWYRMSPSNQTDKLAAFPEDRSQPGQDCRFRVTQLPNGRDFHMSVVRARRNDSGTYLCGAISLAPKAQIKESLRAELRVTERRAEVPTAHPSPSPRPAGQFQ
human CD28, sequence (P10747 19-152 limits assumed): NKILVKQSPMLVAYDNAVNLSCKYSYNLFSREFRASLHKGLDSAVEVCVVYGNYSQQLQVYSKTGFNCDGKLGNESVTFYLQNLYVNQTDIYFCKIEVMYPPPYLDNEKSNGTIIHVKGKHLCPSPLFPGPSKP

B1: humanized 13F1-hIgG4 (antibody)
heavy: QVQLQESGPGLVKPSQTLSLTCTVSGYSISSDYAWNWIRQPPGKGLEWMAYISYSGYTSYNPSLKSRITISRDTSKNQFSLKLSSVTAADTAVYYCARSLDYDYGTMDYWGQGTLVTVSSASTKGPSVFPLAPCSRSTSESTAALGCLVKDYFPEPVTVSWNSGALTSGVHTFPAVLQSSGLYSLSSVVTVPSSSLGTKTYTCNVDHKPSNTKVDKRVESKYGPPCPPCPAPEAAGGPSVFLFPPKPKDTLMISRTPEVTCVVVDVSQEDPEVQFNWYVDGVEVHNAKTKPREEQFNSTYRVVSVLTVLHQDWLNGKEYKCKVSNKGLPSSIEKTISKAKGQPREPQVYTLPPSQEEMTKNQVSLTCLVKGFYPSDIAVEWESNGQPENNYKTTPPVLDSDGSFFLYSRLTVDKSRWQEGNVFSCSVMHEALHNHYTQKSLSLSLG
light: EIVLTQSPATLSLSPGERATLSCRANSSVSSMHWYQQKPGQSPEPWIYAISNLAFGVPARFSGSGSGTDYTLTISSLEPEDFAVYYCQQWSSRPPTFGQGTKLEIKRTVAAPSVFIFPPSDEQLKSGTASVVCLLNNFYPREAKVQWKVDNALQSGNSQESVTEQDSKDSTYSLSSTLTLSKADYEKHKVYACEVTHQGLSSPVTKSFNRGEC
notes: IgG4 constant region with F234A and L235A, already in the entry; also called h13F1-IgG4; hu-13F1-hIgG4
B1 gave an EC50 [1] of 0.0763 µg/mL, a Ka [2] of 5.78e+09 M⁻¹ and a Kd [2] of 0.173 nM. It also gave a koff [2] of 0.000119 s⁻¹, a kon [2] of 687000 M⁻¹ s⁻¹ and an EC50 [3] of 0.031 µg/mL. The IC50 [4] was 0.579 µg/mL and the IC50 [5] was 0.026 µg/mL.

B2: humanized 7A4-hIgG4 (antibody)
heavy: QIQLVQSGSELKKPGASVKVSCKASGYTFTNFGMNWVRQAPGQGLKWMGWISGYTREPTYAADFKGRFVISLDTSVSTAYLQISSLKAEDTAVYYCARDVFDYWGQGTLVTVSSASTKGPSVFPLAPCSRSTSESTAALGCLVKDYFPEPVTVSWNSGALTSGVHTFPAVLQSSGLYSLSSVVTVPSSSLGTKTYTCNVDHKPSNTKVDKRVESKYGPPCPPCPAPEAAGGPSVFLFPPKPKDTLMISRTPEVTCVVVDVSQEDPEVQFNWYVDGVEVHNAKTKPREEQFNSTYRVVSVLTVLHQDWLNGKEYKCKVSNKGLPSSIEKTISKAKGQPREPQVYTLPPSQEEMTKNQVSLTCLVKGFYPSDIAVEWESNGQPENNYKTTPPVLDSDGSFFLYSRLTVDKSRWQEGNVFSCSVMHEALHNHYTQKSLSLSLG
light: DIVLTQSPASLAVSPGQRATITCRASESVDNYGYSFMNWFQQKPGQPPKLLIYRASNLESGVPARFSGSGSRTDFTLTINPVEANDTANYYCQQSNADPTFGQGTKLEIKRTVAAPSVFIFPPSDEQLKSGTASVVCLLNNFYPREAKVQWKVDNALQSGNSQESVTEQDSKDSTYSLSSTLTLSKADYEKHKVYACEVTHQGLSSPVTKSFNRGEC
notes: IgG4 constant region with F234A and L235A, already in the entry; also called h7A4-IgG4; 7A4-huIgG4
Binder B2 has an EC50 [1] of 0.0621 µg/mL, a Ka [2] of 2.93e+09 M⁻¹ and a Kd [2] of 0.342 nM. It also gave a koff [2] of 0.000498 s⁻¹, a kon [2] of 1.46e+06 M⁻¹ s⁻¹ and an EC50 [3] of 0.0707 µg/mL. The IC50 [4] was 0.886 µg/mL and the IC50 [5] was 0.0169 µg/mL.

B3: humanized 13F1-hIgG1 (antibody)
heavy: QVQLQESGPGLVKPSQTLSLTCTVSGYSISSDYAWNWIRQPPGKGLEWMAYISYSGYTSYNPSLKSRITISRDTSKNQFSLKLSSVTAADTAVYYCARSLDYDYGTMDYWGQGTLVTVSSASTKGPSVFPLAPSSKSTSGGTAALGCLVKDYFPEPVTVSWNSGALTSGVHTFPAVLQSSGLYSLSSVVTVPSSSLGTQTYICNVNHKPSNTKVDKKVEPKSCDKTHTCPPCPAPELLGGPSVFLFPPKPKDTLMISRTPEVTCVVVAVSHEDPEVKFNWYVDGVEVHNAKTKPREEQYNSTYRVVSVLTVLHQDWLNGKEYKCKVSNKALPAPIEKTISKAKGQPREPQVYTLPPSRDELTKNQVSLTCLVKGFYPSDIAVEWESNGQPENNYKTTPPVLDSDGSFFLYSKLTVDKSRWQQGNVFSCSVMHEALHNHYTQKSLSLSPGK
light: EIVLTQSPATLSLSPGERATLSCRANSSVSSMHWYQQKPGQSPEPWIYAISNLAFGVPARFSGSGSGTDYTLTISSLEPEDFAVYYCQQWSSRPPTFGQGTKLEIKRTVAAPSVFIFPPSDEQLKSGTASVVCLLNNFYPREAKVQWKVDNALQSGNSQESVTEQDSKDSTYSLSSTLTLSKADYEKHKVYACEVTHQGLSSPVTKSFNRGEC
notes: IgG1 constant region with D265A, already in the entry; also called h13F1-IgG1; hu-13F1-hIgG1
In the case of B3, the EC50 [1] is reported as 0.0668 µg/mL, the EC50 [3] is reported as 0.0357 µg/mL and the IC50 [4] is reported as 0.985 µg/mL. For the same binder, the IC50 [5] was 0.0295 µg/mL.

B4: 4C10 murine anti-PD-1 antibody (antibody, V domains shown)
VH: QVQLKQSGPGLVQPSQNLSVTCTVSGFSLTTYGVHWVRQSPGKGLEWLGVIWSGGSTDYNAAFISRLTISKDNARSQVFFKMNSLQVNDTAMYYCAREKSVYGNYVGAMDYWGQGTSVTVSS
VL: SIVMTQTPKFLLVSAGDRVTITCKASQSVSDDVAWYQQKPGQSPKLLIYYAFNRYTGVPDRFTGSGYGTDFTFTISTVQSEDLAVYFCQQDYRSPWTFGGGTKLEIKR
notes: Purified hybridoma antibody; also called 4C10-mIgG1
B4 was tested, and the IC50 [6] was 0.0833 µg/mL, the EC50 [7] was 0.0132 µg/mL and the binding result (mouse PD-1) was “no binding”. For the same binder, the Kd [8] was 0.0332 nM, the IC50 [9] was 1.46 µg/mL and the binding result (human CD28) was “no binding”. For the same binder, the binding result (human ICOS) was “no binding”, the binding result (human CTLA4) was “no binding” and the IC50 [10] was 0.251 µg/mL. For the same binder, the EC50 [11] was 0.109 µg/mL, the IC50 [12] was 1.46 µg/mL and the Ka [13] was 3.01e+10 M⁻¹. For the same binder, the Kd [13] was 0.0332 nM, the koff [13] was 2.63e-05 s⁻¹ and the kon [13] was 791000 M⁻¹ s⁻¹. It also gave an EC50 [14] of 0.0132 µg/mL.
